Measurements as given in US20230106715A1 (BIOSION, published 2023).

What was measured:
[1] = target: T1, human Siglec15-Fc protein (human); test: competitive ELISA: coated human Siglec15-Fc, blocked ligand biotin-labeled human LRRC4C-Fc
T1 construct: In house made; also called recombinant human Siglec15 protein with human IgG1 Fc at the C-terminus
Description: Serially diluted anti-Siglec15 antibodies or the controls (starting at 66.67 nM with a 5-fold serial dilution) in PBST with 2.5% w/v non-fatty milk were added to the Siglec15-Fc bound plates, 100 μl per well, and incubated with the human Siglec15-Fc protein at 37° C. for 40 minutes. Plates were washed 4 times again using wash buffer, then added and incubated for 40 minutes at 37° C. with 100 μl/well 290 ng/ml biotin-labeled human LRRC4C-Fc protein (prepared in-house with SEQ ID NO: 23). Plates were washed again using wash buffer. Thereafter, the plates were added with 100 μl/well streptavidin conjugated HRP (1:5000 dilution in PBST buffer, Jackson Immunoresearch, Cat #016-030-084) and incubated for 40 minutes at 37° C. Plates were washed again using wash buffer. Finally, TMB was added and the reaction was stopped using 1M H₂SO₄, and the absorbance of each well was read on a microplate reader using dual wavelength mode with 450 nm for TMB and 630 nm as the reference wavelength, then the OD (450-630) values were plotted against antibody concentration. Data was analyzed using Graphpad Prism software and IC₅₀ values were reported.

[2] = target: T2, human Siglec15 on human-siglec15-2D3-1E1 cells (human, UniProt Q6ZMC9 20-328); test: cell based binding FACS on human-siglec15-2D3-1E1 cells
T2 construct: whole, on cells; Transfected HEK-293 cells; also called cell surface human Siglec15
T2 sequence (looked up): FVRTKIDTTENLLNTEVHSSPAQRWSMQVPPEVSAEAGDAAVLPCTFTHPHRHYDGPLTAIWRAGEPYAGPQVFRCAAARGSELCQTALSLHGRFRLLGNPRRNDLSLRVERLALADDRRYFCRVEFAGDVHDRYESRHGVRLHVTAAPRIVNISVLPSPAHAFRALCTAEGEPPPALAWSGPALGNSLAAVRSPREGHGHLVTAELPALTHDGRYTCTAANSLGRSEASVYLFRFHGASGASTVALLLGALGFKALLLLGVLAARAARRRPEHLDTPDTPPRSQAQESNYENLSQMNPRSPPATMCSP
Description: The binding activities of the anti-Siglec15 antibodies to cell surface Siglec15 were tested by flow cytometry (FACS), using in-house prepared human-siglec15-2D3-1E1 cells expressing human Siglec15 (amino acid residues Met1-Pro328 of uniprot #Q6ZMC9) on cell membranes. The human-siglec15-2D3-1E1 cells were prepared by transfecting HEK-293 cells (ATCC #CRL-1573) with pCMV-T-P plasmids inserted with human Siglec15 coding sequence between EcoRI and XbaI sites, following the instruction of lipofectamine 3000 transfection reagent (Thermo Fisher). The human-siglec15-2D3-1E1 cells were harvested from cell culture flasks, washed twice and re-suspended in phosphate buffered saline (PBS) containing 2% v/v Fetal Bovine Serum (FACS buffer). 2×10⁵ cells per well in 96 well-plates were incubated in 100 μL serially diluted anti-Siglec15 antibodies or controls (starting at 66.67 nM, 5-fold serial dilution) in FACS buffer for 40 minutes on ice. […] Following a 40-minute incubation at 4° C. in dark, cells were washed three times and re-suspended in FACS buffer. Fluorescence was measured using a Becton Dickinson FACS Canto II-HTS equipment. Data was analyzed using Graphpad Prism software and EC₅₀ values were reported.

[3] = target: T1, human Siglec15-Fc protein; test: competitive ELISA: biotin-labeled human Siglec15-Fc in solution, competitor coated benchmark; falling curve, table row is labelled EC50
Description: The abilities of the anti-Siglec15 antibodies of the disclosure to block benchmark-human Siglec15 binding were measured in a competitive ELISA assay. Briefly, the benchmark was coated on 96-well micro plates at 2 μg/mL in PBS, 100 μl per well, and incubated for 2 hours at 37° C. Then plates were washed once with wash buffer, and blocked with 5% w/v non-fatty milk in PBST overnight at 4° C. The next day, the anti-Siglec15 antibodies of the disclosure or controls were diluted with biotin labeled human Siglec15-Fc protein (prepared in-house with SEQ ID NO: 19, 37 ng/ml in PBST with 2.5% w/v non-fatty milk), starting at 80 nM with a 4-fold serial dilution, and incubated at room temperature for 40 minutes. After plate washing 4 times, the antibody/Siglec15-Fc mixtures were added to benchmark coated plates, 100 μl per well. After incubation at 37° C. for 40 minutes, plates were washed 4 times again using wash buffer. Then the plates were added and incubated with 100 μl/well streptavidin conjugated HRP for 40 minutes at 37° C. […] Finally, TMB was added and the reaction was stopped using 1M H₂SO₄, and the absorbance of each well was read on a microplate reader using dual wavelength mode with 450 nm for TMB and 630 nm as the reference wavelength, then the OD (450-630) values were plotted against antibody concentration. Data was analyzed using Graphpad Prism software and IC₅₀ values were reported.

T1 sequence (chain, as listed by the source limits assumed): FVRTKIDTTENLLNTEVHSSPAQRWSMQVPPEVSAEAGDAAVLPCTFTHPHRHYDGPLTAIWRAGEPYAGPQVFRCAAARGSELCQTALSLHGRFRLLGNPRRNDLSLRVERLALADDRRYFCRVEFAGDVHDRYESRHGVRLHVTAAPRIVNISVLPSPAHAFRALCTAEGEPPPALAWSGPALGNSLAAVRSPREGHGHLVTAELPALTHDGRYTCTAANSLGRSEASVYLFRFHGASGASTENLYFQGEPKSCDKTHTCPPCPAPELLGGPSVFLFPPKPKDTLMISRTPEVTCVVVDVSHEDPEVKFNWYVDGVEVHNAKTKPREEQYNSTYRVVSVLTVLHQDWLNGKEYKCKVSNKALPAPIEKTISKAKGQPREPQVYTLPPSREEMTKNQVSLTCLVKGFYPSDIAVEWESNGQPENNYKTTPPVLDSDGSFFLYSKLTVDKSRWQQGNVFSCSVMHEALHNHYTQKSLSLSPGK

IC50 [1]: 792 pM
EC50 [2]: 19800 pM
IC50 [3]: 486 pM
B1: anti-Siglec15 benchmark (ch5G12) (antibody, human IgG1, kappa, V domains shown)
VH: QVQLQQPGAELVKPGASVKMSCKASGYTFTSYWITWVIQRPGQGLEWIGDIYCGSDTMHYNEKFKNKATLTVDTSSSTAYMQLSSLTSEDSAVYYCARWWDYGSSYDYFDYWGQGTTLTVSS
VL: DIKMTQSPSSMYASLGERVTITCKASQDINSYLSWFQQKPGKSPKTLIYRANRLVDGVPSRFSGSGSGQDYSLTISSLEYEDMGIYYCLQYDEFPYTFGGGTKLEIKR
notes: ch5G12 (US 20190202912A1); also called BM; Siglec15-ch5G9
